The values that follow come from PMC3897375, “Def1 Promotes the Degradation of Pol3 for Polymerase Exchange to Occur During DNA-Damage–Induced Mutagenesis in Saccharomyces cerevisiae” (PLoS Biology, 2014).

One assay concerns the target T1, Rev1 (S. cerevisiae, UniProt P12689 1-985).
T1 construct: Rev1, translesion synthesis DNA polymerase, S. cerevisiae; also called TLS polymerase Rev1; purified Rev1; source: S. cerevisiae BJ5464, overexpressed, purified on glutathione–Sepharose 4B beads, eluted by PreScission protease cleavage; not shown: GST, N-terminal, cleaved
T1 sequence (looked up): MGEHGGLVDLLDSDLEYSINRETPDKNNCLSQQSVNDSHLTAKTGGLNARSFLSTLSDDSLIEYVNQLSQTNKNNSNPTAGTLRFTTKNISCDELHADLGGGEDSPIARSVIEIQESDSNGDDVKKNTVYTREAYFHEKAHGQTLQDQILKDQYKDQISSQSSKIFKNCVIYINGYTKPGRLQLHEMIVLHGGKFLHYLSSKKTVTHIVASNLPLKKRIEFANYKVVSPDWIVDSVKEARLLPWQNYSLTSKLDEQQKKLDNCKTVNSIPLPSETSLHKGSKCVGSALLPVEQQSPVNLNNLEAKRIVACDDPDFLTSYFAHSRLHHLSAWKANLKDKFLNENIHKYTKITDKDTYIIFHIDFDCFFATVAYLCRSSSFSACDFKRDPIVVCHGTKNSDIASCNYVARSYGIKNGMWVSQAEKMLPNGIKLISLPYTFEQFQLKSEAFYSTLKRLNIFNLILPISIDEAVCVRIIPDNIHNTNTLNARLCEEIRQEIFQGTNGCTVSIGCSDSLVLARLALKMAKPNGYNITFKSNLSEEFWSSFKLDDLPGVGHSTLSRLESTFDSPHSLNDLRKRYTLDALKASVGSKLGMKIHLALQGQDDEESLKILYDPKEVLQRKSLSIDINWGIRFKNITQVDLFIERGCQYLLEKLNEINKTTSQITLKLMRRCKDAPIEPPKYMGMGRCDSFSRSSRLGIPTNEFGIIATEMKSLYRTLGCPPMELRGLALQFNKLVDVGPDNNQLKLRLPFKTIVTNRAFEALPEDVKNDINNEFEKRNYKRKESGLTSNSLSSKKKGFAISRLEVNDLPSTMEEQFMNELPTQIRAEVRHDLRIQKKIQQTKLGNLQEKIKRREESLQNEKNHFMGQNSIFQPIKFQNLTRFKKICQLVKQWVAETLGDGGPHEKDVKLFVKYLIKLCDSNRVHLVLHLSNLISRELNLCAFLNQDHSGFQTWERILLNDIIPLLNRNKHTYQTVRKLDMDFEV
Put plainly: pull-down; GST–Pol32 (3 µg) or GST immobilised on glutathione–Sepharose beads, incubated with purified Pol31 (5 µg) and Rev1 (3 µg) together, overnight on ice; 50 mM Tris/HCl pH 7.5, 150 mM NaCl, 1 mM EDTA, 1 mM DTT, 10% glycerol, 0.01% Nonidet P-40; five washes, elution with 20 mM glutathione, SDS-PAGE. To be noted: both partners purified.

The target in a further assay is T2, Pol31 (S. cerevisiae, UniProt P46957 1-487).
T2 construct: Pol31, noncatalytic subunit of DNA polymerase delta, S. cerevisiae; also called purified Pol31; source: S. cerevisiae BJ5464, overexpressed, purified on glutathione–Sepharose 4B beads, eluted by PreScission protease cleavage; not shown: GST, N-terminal, cleaved
T2 sequence (looked up): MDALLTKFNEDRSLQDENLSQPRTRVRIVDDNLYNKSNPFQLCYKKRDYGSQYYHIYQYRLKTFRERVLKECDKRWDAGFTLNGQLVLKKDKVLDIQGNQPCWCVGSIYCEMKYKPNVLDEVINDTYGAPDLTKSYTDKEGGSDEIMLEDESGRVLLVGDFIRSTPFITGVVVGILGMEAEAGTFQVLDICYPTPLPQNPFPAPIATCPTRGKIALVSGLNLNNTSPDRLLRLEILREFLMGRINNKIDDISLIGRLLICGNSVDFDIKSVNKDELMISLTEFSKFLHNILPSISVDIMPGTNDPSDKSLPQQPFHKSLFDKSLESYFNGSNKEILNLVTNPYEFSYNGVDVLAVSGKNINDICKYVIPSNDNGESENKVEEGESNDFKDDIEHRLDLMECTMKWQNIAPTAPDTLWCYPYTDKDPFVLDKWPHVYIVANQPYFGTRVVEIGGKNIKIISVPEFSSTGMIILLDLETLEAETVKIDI
The description is as above. Conditions: both partners purified.

B1: GST–Pol32 (natural protein, S. cerevisiae, UniProt P47110 1-350, looked up)
chain: MDQKASYFINEKLFTEVKPVLFTDLIHHLKIGPSMAKKLMFDYYKQTTNAKYNCVVICCYKDQTIKIIHDLSNIPQQDSIIDCFIYAFNPMDSFIPYYDIIDQKDCLTIKNSYELKVSESSKIIERTKTLEEKSKPLVRPTARSKTTPEETTGRKSKSKDMGLRSTALLAKMKKDRDDKETSRQNELRKRKEENLQKINKQNPEREAQMKELNNLFVEDDLDTEEVNGGSKPNSPKETDSNDKDKNNDDLEDLLETTAEDSLMDVPKIQQTKPSETEHSKEPKSEEEPSSFIDEDGYIVTKRPATSTPPRKPSPVVKRALSSSKKQETPSSNKRLKKQGTLESFFKRKAK
notes: Pol32, noncatalytic subunit of DNA polymerase delta, S. cerevisiae; source: S. cerevisiae BJ5464, overexpressed, purified on glutathione–Sepharose 4B beads; not shown: GST, N-terminal, kept
On to B1, for which the binding result with Rev1 and with Pol31 was “binds” in each case.
